This note sets out measurements from patent US20140056903A1 (Regeneron, published 2014).

T1: monkey GFRα3 expressed with a C-terminal myc-myc-hexahistidine tag (monkey (Mf), UniProt O60609 32-374 (human entry), limits assumed)
T1 construct: also called MfGFRα3-mmh; MfGFRα3-mmH
T1 chain: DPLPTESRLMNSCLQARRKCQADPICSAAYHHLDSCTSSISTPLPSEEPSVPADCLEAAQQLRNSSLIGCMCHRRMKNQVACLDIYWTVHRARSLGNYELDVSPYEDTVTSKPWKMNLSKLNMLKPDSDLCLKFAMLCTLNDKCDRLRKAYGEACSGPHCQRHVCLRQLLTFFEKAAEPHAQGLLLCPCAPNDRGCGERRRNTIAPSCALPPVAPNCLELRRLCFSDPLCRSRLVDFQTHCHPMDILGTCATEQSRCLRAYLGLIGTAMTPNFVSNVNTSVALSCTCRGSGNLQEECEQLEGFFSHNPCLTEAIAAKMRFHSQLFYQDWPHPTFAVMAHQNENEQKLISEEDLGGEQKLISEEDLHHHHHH

B1: H1M2236N (antibody, V domains shown)
VH: EVQLLESGGNLVQPGGSLRLSCAASGFTFSSYAMTWVRQAPGKGLEWVSTISGSGTSTYYADSVKGRFTISRDNSRDTVFLQMNSLRAEDTAVYYCSKPSALRFLHWLCMDVWGQGTLVTVSS
VL: DIQMTQSPSSLSAFVGDRVTITCRASQDIRNYLDWFQQKPGKAPKSLIYAASNLQSGVPSRFGGSGSGTDFTLTINSLQPEDFVTYYCQQYNSYPPTFGGGTKVEIK
notes: chimeric, human variable and mouse constant domains (H1M)
B2: H1M2243N (antibody, V domains shown)
VH: QVQLVQSGAEVKKPGASVKVSCKASGYTFTSYGIIWVRQAPGQGLEWMGWISGYNGNTNYTQNLQGRVTMTTDTSTTTAYMELRSLRSDDTAVYYCARWGIATRPYYYYGMDVWGQGTTVTVSS
VL: B1 VL with F14S, R30T, D34A, N53S, R61K, G63S, N76S, V84A, G100P, E105D
notes: as for B1
B3: H1M2212N (antibody, V domains shown)
VH: EVQLLESGGGLVQPGGSLRLSCAASGFTFSSYAMSWVRQGPGKGLEWVSGISGSGGSTYNADSVKGRFTISRDNSKNTLYLQMNSLRAEDTAVYYCAKDSGTYWYYFDYWGQGILVTVSS
VL: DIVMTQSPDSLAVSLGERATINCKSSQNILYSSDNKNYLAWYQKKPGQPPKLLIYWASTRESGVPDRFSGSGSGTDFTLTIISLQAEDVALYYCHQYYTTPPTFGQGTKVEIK
notes: as for B1
B4: H2aM2210N (antibody, mouse IgG2, V domains shown)
VH: EVQLLESGGGLVQPGGSLRVSCAASGFTFSTSAMSWVRQAPGKGLEWVSGISGIGGGSTYYADSVKGRFTISRDNSKNTLYLQMNSLRAEDTAVYFCAKFYKWNSYIFDLWGQGTMVTVSS
VL: EIVLTQSPDTLSLSPGERATLSCRASQSVSSSYFAWYQQKPGQAPRLLMYSASSRATGIPDRFSGSGSGTDFSLTISRLEPEDFAVYYCQQYGRSLTFGGGTKVEIK
notes: chimeric, mouse IgG2 Fc (H2M/H2aM); also called H2M2210N
B5: H2aM2234N (antibody, mouse IgG2, V domains shown)
VH: EVQLLESGGGLVQSGGSLRLSCAASGFSFNNYAMSWVRQAPGKGLEWVSFISGSGGSTYYADSVKGRFTISRDNSKNTLYLQMNSLRVEDTAVFYCAKDRYNYGTFFDYWGQGTLVTVSS
VL: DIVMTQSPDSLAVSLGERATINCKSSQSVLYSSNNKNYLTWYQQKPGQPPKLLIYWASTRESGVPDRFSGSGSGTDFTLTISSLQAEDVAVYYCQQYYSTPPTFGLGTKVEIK
notes: chimeric, mouse IgG2 Fc (H2M/H2aM); also called H2M2234N
B6: H1M2207N (antibody, V domains shown)
VH: EVQLVESGGGLVQPGRSLRLSCAASGFTFNDYAMHWVRQAPGKGLEWVSGISWNSGNIGYADSVKGRFTISRDNAKNSLYLQMNSLRAEDTALYFCARDTRMATRPFDYWGQGTLVTVSS
VL: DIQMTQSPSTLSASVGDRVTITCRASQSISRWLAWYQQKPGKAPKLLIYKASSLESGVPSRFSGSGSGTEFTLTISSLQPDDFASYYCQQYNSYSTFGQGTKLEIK
notes: as for B1

Substitutions are numbered along the chain they refer to. Names may count otherwise.

The target of the first assay is T2, human GFRα3 expressed with a C-terminal myc-myc-hexahistidine tag (human, UniProt O60609 32-374, biotinylated (sites not given) in ELISA format 2 and in the Octet cross-competition; not in SPR).
T2 construct: also called hGFRα3-mmh; hGFRα3-mmH
Briefly: SPR, Ab captured, 25C. The protocol:
(§1) Antibodies were tested for binding to human GFRα3 expressed with either a C-terminal myc-myc-hexahistidine tag (hGFRα3-mmh; SEQ ID: 370, a C-terminal hFc tag (hGFRα3-hFc; SEQ ID:371), or a C-terminal mFc tag (hGFRα3-mFc; SEQ ID:372), as well as monkey GFRα3 expressed with a C-terminal myc-myc-hexahistidine tag (MfGFRα3-mmh; SEQ ID:373). Anti-GFRα3 antibodies were captured on either a goat anti-mouse IgG polyclonal antibody (GE Healthcare, #BR-1008-38) or a mouse anti-human IgG monoclonal antibody (GE Healthcare, #BR-1008-39) surface created through direct amine coupling to a Biacore CM5 sensor chip. Kinetic experiments were carried out using HBS-EP (10 mM HEPES, 150 mM NaCl, 3 mM EDTA, 0.05% Surfactant P20, at pH 7.4) or PBS buffer containing 0.05% v/v surfactant P20 as both the running buffer and the sample buffer. Binding to human GFRα3-mmh or monkey GFRα3-mmh was evaluated by injecting several concentrations ranging from 200 to 7.4 nM (3-fold dilutions) across the captured antibody surface. Binding to human GFRα3-mFc or human GFRα3-hFc was evaluated by injecting several concentrations ranging from 100 to 3.7 nM (3-fold dilutions) across the captured antibody surface. Antibody-antigen association was monitored for up to 4 minutes, while dissociation in buffer was monitored for up to 20 minutes. Kinetic association (kₐ) and dissociation (kd) rate constants were determined by processing and fitting the data to a 1:1 binding model using Scrubber 2.0c curve fitting software. Binding dissociation equilibrium constants (KD) and dissociative half-lives (t_{1/2}) were calculated from the kinetic rate constants as: KD (M)=kd/kₐ and t_{1/2} (min)=[ln 2/(60*kd)].
(In general: Surface plasmon resonance follows binding to a sensor surface in real time, without labels.)
By Kd is commonly meant the concentration at which binding is half-saturated. Usually koff stands for the first-order rate constant of dissociation. One may read the kon as the second-order rate constant of association. Take B1: binding was put at a Kd of 0.275 nM, the koff was 0.000208 s⁻¹, the kon turned out to be 760000 M⁻¹ s⁻¹ and the t1/2 amounted to 56 min.
For B2 the same measures were 2.04 nM, 0.000261 s⁻¹, 128000 M⁻¹ s⁻¹ and 44 min.
For B3, in that order: 0.197 nM, 0.000158 s⁻¹, 800000 M⁻¹ s⁻¹ and 73 min.
B4 had a Kd of 12.8 nM, a koff of 0.000863 s⁻¹, a kon of 67300 M⁻¹ s⁻¹ and a t1/2 of 13 min.
For B5, in that order: 1.08 nM, 0.000711 s⁻¹, 657000 M⁻¹ s⁻¹ and 16 min.
For B6 the same measures were 16 nM, 0.0009 s⁻¹, 56100 M⁻¹ s⁻¹ and 13 min.

In another assay the target is T3, human GFRα3 expressed with a C-terminal hFc tag (human).
T3 construct: also called hGFRα3-hFc
The assay is described as follows: SPR, Ab captured, 25C. The protocol: as §1
B1 showed a Kd of 0.0137 nM, a koff of 1.76e-05 s⁻¹, a kon of 1.28e+06 M⁻¹ s⁻¹ and a t1/2 of 11 h.
On to B2, for which the Kd is at most 0.0075 nM, the koff was at most 1e-06 s⁻¹, the kon was 134000 M⁻¹ s⁻¹ and the t1/2 is 192 h.
For B3, in that order: 0.0128 nM, 1.44e-05 s⁻¹, 1.12e+06 M⁻¹ s⁻¹ and 13.3 h.
As to B4, the Kd was found to be 0.22 nM, the koff amounted to 3.69e-05 s⁻¹, the kon came out at 168000 M⁻¹ s⁻¹ and the t1/2 was 5.22 h.
For B5, in that order: 0.101 nM, 9.6e-05 s⁻¹, 950000 M⁻¹ s⁻¹ and 2 h.
For B6, in that order: 0.163 nM, 2.6e-05 s⁻¹, 159000 M⁻¹ s⁻¹ and 7.4 h.

The next assay deals with T1, monkey GFRα3 expressed with a …. The assay is described as follows: SPR, Ab captured, 25C. The protocol:
as §1
In turn, B1 showed a Kd of 0.97 nM, a koff of 0.000286 s⁻¹, a kon of 296000 M⁻¹ s⁻¹ and a t1/2 of 40 min.
Consider B2, for which the Kd came to 10.2 nM, the koff was 0.000658 s⁻¹, the kon was 64600 M⁻¹ s⁻¹ and the t1/2 came to 18 min.
With B3, the Kd was found to be 0.293 nM, the koff worked out at 0.000112 s⁻¹, the kon is 384000 M⁻¹ s⁻¹ and the t1/2 is 103 min.
Take B4: the Kd worked out at 28.9 nM, the koff turned out to be 0.0012 s⁻¹, the kon came to 41600 M⁻¹ s⁻¹ and the t1/2 came out at 10 min.
For B5 the same measures were 1.34 nM, 0.000571 s⁻¹, 427000 M⁻¹ s⁻¹ and 20 min.
For B6, in that order: 97.2 nM, 0.00388 s⁻¹, 39900 M⁻¹ s⁻¹ and 3 min.

A further assay has as its target T2, human GFRα3 expressed with a C-terminal …. Briefly: SPR, Ab captured, 37C. The protocol:
as §1
The molecule B1 displayed a dissociation constant Kd of 0.532 nM, a koff of 0.00055 s⁻¹, a kon of 1.03e+06 M⁻¹ s⁻¹ and a t1/2 of 21 min.
For B2 the same measures were 4.35 nM, 0.000595 s⁻¹, 137000 M⁻¹ s⁻¹ and 19 min.
For B3 the same measures were 0.297 nM, 0.000303 s⁻¹, 1.02e+06 M⁻¹ s⁻¹ and 38 min.
For B4 the same measures were 15.8 nM, 0.00335 s⁻¹, 212000 M⁻¹ s⁻¹ and 3 min.
For B5, the Kd amounted to 3.43 nM, the koff was found to be 0.00272 s⁻¹, the kon amounted to 793000 M⁻¹ s⁻¹ and the t1/2 amounted to 4 min.
For B6, in that order: 10.8 nM, 0.00144 s⁻¹, 133000 M⁻¹ s⁻¹ and 8 min.

A further assay addresses T3, human GFRα3 expressed with a C-terminal …. Briefly: SPR, Ab captured, 37C. The protocol: as §1
Molecule B1 yielded a Kd of 0.061 nM, a dissociation rate constant (koff) of 9.65e-05 s⁻¹, a kon of 1.58e+06 M⁻¹ s⁻¹ and a t1/2 of 120 min.
In the case of B2, the Kd is 0.117 nM, the koff was found to be 2.18e-05 s⁻¹, the kon came to 186000 M⁻¹ s⁻¹ and the t1/2 amounted to 529 min.
In the case of B3, the Kd came to 0.0413 nM, the koff stood at 6.17e-05 s⁻¹, the kon worked out at 1.49e+06 M⁻¹ s⁻¹ and the t1/2 came to 187 min.
For B4 the same measures were 0.242 nM, 7.66e-05 s⁻¹, 316000 M⁻¹ s⁻¹ and 151 min.
For B5 the same measures were 0.116 nM, 0.000146 s⁻¹, 1.26e+06 M⁻¹ s⁻¹ and 79 min.
For B6, in that order: 0.531 nM, 0.000108 s⁻¹, 203000 M⁻¹ s⁻¹ and 107 min.

Another assay has as its target T1, monkey GFRα3 expressed with a …. Briefly: SPR, Ab captured, 37C. As for the experimental part: as §1
In turn, B1 gave a Kd of 2.58 nM, a koff of 0.00112 s⁻¹, a kon of 434000 M⁻¹ s⁻¹ and a t1/2 of 10 min.
For B2, in that order: 54.7 nM, 0.00275 s⁻¹, 50200 M⁻¹ s⁻¹ and 4 min.
For B3, in that order: 0.294 nM, 0.00026 s⁻¹, 884000 M⁻¹ s⁻¹ and 44 min.
For B4 the same measures were 76.4 nM, 0.00618 s⁻¹, 80900 M⁻¹ s⁻¹ and 2 min.
For the molecule B5, binding was characterised by a dissociation constant (Kd) of 4.91 nM, the koff is 0.00211 s⁻¹, the kon amounted to 429000 M⁻¹ s⁻¹ and the t1/2 amounted to 5 min.
For B6, in that order: 145 nM, 0.00663 s⁻¹, 45800 M⁻¹ s⁻¹ and 2 min.
